20 molecules from patent US20180340025A1 (Novartis, published 2018) can be followed below.

Sequences and labels used below:
T1: human LAG-3 expressed on cells (human, UniProt P18627 23-525)
T1 construct: whole, on cells; Treated as one protein; the host cell is named under assay; also called LAG-3-expressing CHO cells; LAG-3-transfected CHO cells
T1 sequence (looked up): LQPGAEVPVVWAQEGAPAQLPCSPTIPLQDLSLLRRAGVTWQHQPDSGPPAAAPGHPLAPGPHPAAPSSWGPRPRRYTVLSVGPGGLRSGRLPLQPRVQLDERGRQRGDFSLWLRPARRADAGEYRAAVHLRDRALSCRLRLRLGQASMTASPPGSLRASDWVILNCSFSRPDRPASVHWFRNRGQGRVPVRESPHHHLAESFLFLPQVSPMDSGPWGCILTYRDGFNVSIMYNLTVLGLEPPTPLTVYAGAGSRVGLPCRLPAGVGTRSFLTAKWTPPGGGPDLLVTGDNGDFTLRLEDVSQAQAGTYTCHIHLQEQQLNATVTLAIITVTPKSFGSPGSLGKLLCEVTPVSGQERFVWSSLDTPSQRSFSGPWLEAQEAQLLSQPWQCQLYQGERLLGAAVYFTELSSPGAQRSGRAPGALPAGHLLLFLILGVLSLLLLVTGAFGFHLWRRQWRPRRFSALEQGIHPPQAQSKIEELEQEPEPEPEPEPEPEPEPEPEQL

B1: BAP050-hum03 (antibody, human IgG4 S228P, kappa)
heavy: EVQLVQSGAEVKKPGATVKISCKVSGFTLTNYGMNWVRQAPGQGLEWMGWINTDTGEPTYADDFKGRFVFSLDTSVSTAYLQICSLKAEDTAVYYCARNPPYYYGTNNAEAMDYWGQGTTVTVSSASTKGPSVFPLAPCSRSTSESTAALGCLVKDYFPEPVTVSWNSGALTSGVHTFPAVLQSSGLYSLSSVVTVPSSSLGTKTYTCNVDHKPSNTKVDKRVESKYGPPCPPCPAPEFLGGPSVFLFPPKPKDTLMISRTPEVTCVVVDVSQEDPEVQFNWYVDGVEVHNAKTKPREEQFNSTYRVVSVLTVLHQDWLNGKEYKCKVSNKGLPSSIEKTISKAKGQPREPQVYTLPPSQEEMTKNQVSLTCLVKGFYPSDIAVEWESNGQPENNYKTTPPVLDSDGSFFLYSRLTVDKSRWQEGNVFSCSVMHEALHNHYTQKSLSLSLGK
light: EIVLTQSPATLPVTLGQPASISCSSSQDISNYLNWYQQKPGQAPRLLIYYTSTLHLGVPSRFSGSGSGTDFTFTISSLEAEDAATYYCQQYYNLPWTFGQGTKVEIKRTVAAPSVFIFPPSDEQLKSGTASVVCLLNNFYPREAKVQWKVDNALQSGNSQESVTEQDSKDSTYSLSSTLTLSKADYEKHKVYACEVTHQGLSSPVTKSFNRGEC
notes: humanized IgG4(S228P)/kappa, transient CHO supernatant
B2: BAP050-hum16 (antibody, human IgG4 S228P, kappa, V domains shown)
VH: EVQLVQSGAEVKKPGESLRISCKGSGFTLTNYGMNWVRQATGQGLEWMGWINTDTGEPTYADDFKGRVTISADKSISTAYLQWSSLKASDTAMYYCARNPPYYYGTNNAEAMDYWGQGTTVTVSS
VL: EIVLTQSPDFQSVTPKEKVTITCSSSQDISNYLNWYQQKPGQAPRLLIYYTSTLHLGVPSRFSGSGSGTDFTLTISSLQPEDFATYYCQQYYNLPWTFGQGTKVEIKR
notes: as for B1
B3: BAP050-hum14 (antibody, human IgG4 S228P, kappa, V domains shown)
VH: EVQLVQSGAEVKKPGATVKISCKVSGFTLTNYGMNWIRQSPSRGLEWLGWINTDTGEPTYADDFKGRFVFSLDTSVSTAYLQICSLKAEDTAVYYCARNPPYYYGTNNAEAMDYWGQGTTVTVSS
VL: EIVLTQSPATLPVTLGQPASISCSSSQDISNYLNWYQQKPGQAPRLLIYYTSTLHLGVPSRFSGSGSGTDFTFTISSLEAEDAATYYCQQYYNLPWTFGQGTKVEIKR
notes: as for B1
B4: BAP050-hum15 (antibody, human IgG4 S228P, kappa, V domains shown)
VH: B3 VH
VL: B2 VL
notes: as for B1
B5: BAP050-hum20 (antibody, human IgG4 S228P, kappa, V domains shown)
VH: QVQLVQSGAEVKKPGASVKVSCKASGFTLTNYGMNWVRQARGQRLEWIGWINTDTGEPTYADDFKGRFVFSLDTSVSTAYLQICSLKAEDTAVYYCARNPPYYYGTNNAEAMDYWGQGTTVTVSS
VL: DIVMTQTPLSLPVTPGEPASISCSSSQDISNYLNWYQQKPGQAPRLLIYYTSTLHLGIPDRFSGSGSGTDFTLTISRLEPEDFAVYYCQQYYNLPWTFGQGTKVEIKR
notes: as for B1
B6: BAP050-hum13 (antibody, human IgG4 S228P, kappa, V domains shown)
VH: B5 VH with R41P, R44G, I48M
VL: DIQMTQSPSSLSASVGDRVTITCSSSQDISNYLNWYQQKPGKAPKLLIYYTSTLHLGIPPRFSGSGYGTDFTLTINNIESEDAAYYFCQQYYNLPWTFGQGTKVEIKR
notes: humanized IgG4(S228P)/kappa, transient CHO supernatant; also called humanized clone No. 13
B7: BAP050-hum09 (antibody, human IgG4 S228P, kappa, V domains shown)
VH: B5 VH
VL: B6 VL
notes: humanized IgG4(S228P)/kappa, transient CHO supernatant; also called humanized clone No. 09
B8: BAP050-hum11 (antibody, human IgG4 S228P, kappa, V domains shown)
VH: B5 VH
VL: DIQMTQSPSSLSASVGDRVTITCSSSQDISNYLNWYLQKPGQSPQLLIYYTSTLHLGVPSRFSGSGSGTEFTLTISSLQPDDFATYYCQQYYNLPWTFGQGTKVEIKR
notes: humanized IgG4(S228P)/kappa, transient CHO supernatant; also called humanized clone No. 11
B9: BAP050-hum17 (antibody, human IgG4 S228P, kappa, V domains shown)
VH: B5 VH with A9S, V11L, R41P, R44G, I48M, C84S, S85T, V93T, Y95F
VL: B8 VL with L37Q, Q42K, S43A, Q45K, E70D, L73F, D81E, F83I
notes: as for B1
B10: BAP050-hum12 (antibody, human IgG4 S228P, kappa, V domains shown)
VH: B5 VH
VL: B2 VL
notes: humanized IgG4(S228P)/kappa, transient CHO supernatant; also called humanized clone No. 12
B11: BAP050-hum10 (antibody, human IgG4 S228P, kappa, V domains shown)
VH: B5 VH
VL: B3 VL
notes: as for B1
B12: BAP050-hum06 (antibody, human IgG4 S228P, kappa, V domains shown)
VH: B3 VH with I37V, S40A, S42G, R43Q, L48M
VL: B5 VL with I58V, D60S, D70E, R77S, E79Q, E81D, V85T
notes: as for B1
B13: BAP050-hum04 (antibody, human IgG4 S228P, kappa, V domains shown)
VH: B3 VH with I37V, S40A, S42G, R43Q, L48M
VL: B8 VL with V58I, S60D, E70D, S77R, Q79E, D81E, T85V
notes: as for B1
B14: BAP050-hum05 (antibody, human IgG4 S228P, kappa)
heavy: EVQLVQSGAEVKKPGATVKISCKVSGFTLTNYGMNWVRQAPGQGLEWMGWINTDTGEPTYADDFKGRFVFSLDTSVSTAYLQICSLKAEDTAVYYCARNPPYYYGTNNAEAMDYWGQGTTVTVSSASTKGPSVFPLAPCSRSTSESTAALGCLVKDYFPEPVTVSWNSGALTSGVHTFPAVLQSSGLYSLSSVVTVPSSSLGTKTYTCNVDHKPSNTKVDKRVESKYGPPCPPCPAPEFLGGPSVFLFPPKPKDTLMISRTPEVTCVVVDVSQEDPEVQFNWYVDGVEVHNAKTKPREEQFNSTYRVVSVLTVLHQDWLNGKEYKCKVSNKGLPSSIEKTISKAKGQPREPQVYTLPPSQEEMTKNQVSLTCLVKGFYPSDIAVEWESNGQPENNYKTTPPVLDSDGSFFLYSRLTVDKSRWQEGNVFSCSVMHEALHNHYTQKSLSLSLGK
light: B1 light with P12S, V13L, T14S, L15P, Q17E, P18R, S20T, I21L, Q42K, R45K
notes: humanized IgG4(S228P)/kappa, transient CHO supernatant; also called humanized clone No. 05
B15: BAP050-hum02 (antibody, human IgG4 S228P, kappa, V domains shown)
VH: B3 VH with I37V, S40A, S42G, R43Q, L48M
VL: B6 VL
notes: humanized IgG4(S228P)/kappa, transient CHO supernatant; also called humanized clone No. 02
B16: BAP050-hum07 (antibody, human IgG4 S228P, kappa, V domains shown)
VH: B3 VH with I37V, S40A, S42G, R43Q, L48M
VL: B8 VL
notes: as for B1
B17: BAP050-hum19 (antibody, human IgG4 S228P, kappa)
heavy: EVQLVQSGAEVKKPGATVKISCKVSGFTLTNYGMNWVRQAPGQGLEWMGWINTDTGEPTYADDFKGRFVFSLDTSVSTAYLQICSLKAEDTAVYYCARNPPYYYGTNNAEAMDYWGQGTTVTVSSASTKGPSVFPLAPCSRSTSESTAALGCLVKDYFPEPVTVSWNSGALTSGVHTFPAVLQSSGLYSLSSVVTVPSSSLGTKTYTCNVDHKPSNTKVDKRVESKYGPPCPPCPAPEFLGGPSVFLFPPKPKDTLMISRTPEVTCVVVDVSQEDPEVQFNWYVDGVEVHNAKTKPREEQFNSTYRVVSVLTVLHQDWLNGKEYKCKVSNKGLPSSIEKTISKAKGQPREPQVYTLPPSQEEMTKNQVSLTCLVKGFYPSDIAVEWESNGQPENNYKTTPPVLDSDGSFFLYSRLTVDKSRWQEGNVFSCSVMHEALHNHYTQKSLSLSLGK
light: EIVLTQSPDFQSVTPKEKVTITCSSSQDISNYLNWYQQKPGQAPRLLIYYTSTLHLGVPSRFSGSGSGTDFTFTISSLEAEDAATYYCQQYYNLPWTFGQGTKVEIKRTVAAPSVFIFPPSDEQLKSGTASVVCLLNNFYPREAKVQWKVDNALQSGNSQESVTEQDSKDSTYSLSSTLTLSKADYEKHKVYACEVTHQGLSSPVTKSFNRGEC
notes: as for B1
B18: BAP050-hum08 (antibody, human IgG4 S228P, kappa)
heavy: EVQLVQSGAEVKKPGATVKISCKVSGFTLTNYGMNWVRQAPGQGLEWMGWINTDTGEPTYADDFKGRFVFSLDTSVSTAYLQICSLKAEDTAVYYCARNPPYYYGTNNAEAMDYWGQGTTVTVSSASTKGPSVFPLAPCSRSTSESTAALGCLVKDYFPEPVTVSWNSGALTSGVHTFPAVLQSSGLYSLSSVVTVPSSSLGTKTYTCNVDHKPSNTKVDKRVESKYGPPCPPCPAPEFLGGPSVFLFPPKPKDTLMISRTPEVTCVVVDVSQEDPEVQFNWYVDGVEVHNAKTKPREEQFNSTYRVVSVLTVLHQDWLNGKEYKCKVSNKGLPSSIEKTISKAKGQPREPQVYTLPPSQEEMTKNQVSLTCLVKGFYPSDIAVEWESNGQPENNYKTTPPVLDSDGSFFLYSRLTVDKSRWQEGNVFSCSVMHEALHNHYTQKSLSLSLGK
light: B17 light with F73L, E79Q, A80P, A83F
notes: as for B1
B19: BAP050-hum02-Ser (antibody, human IgG4 S228P, kappa, V domains shown)
VH: B3 VH with I37V, S40A, S42G, R43Q, L48M, C84S
VL: B6 VL
notes: C84S in VHFW3 of BAP050-hum02; IgG4(S228P)/kappa; also called clone No. 2S; huBAP050(Ser) clone
B20: BAP050-hum09-Ser (antibody, human IgG4 S228P, kappa, V domains shown)
VH: B5 VH with C84S
VL: B6 VL
notes: C84S in VHFW3 of BAP050-hum09; IgG4(S228P)/kappa; also called clone No. 9S; huBAP050(Ser) clone

Changes are numbered by the printed parent chain. Names and notes keep the numbering of the source.

One assay deals with T1, human LAG-3 expressed on cells. The assay can be described thus: rank of the clone among the humanized clones by the FACS binding data on LAG-3-expressing cells. On the technique in general: In flow cytometry, cells or beads pass a laser one at a time.
In the case of B1, the “Ranking, Binding data” value worked out at 7.

With B2, the “Ranking, Binding data” value was found to be 20.

With B3, the “Ranking, Binding data” value stood at 9.

For B4, the “Ranking, Binding data” value worked out at 20.

Take B5: the “Ranking, Binding data” value turned out to be 9.

On to B6, for which the “Ranking, Binding data” value was 9.

Take B7: the “Ranking, Binding data” value was found to be 8.

As to B8, the “Ranking, Binding data” value worked out at 2.

With B9, the “Ranking, Binding data” value amounted to 9.

For the molecule B10, the “Ranking, Binding data” value turned out to be 3.

Regarding B11, the “Ranking, Binding data” value turned out to be 9.

With B12, the “Ranking, Binding data” value turned out to be 9.

With B13, the “Ranking, Binding data” value amounted to 8.

As for B14, the “Ranking, Binding data” value came to 6.

In the case of B15, the “Ranking, Binding data” value is 5.

Turning to B16, the “Ranking, Binding data” value was determined as 8.

On to B17, for which the “Ranking, Binding data” value was determined as 9.

As to B18, the “Ranking, Binding data” value was 4.

The target is the same in the next assay. As to the kind of experiment: FACS competition: serial dilutions of the test mAb against a constant concentration of FITC-labeled murine BAP050 on LAG-3-expressing CHO cells; MFI of bound labelled mAb.
Take B19: the binding result is recorded as “binds”.

B20: the binding result is given as “binds”.

For another assay the target is unchanged. The assay can be described thus: rank of the clone by the competition binding data (test mAb against FITC-labeled murine BAP050 on LAG-3-expressing CHO cells), curve position relative to the chimeric mAb in two experiments. The procedure:
Incubations with the mAb mixtures having different concentration ratios of test mAb to labeled mAb was at 4° C. for 30 min. […] The experiment was performed twice.
Such a ranking system was used in FIG. 6.
Take B1: the “Ranking, Compet. data” value was 1.

For B2, the “Ranking, Compet. data” value stood at 20.

For the molecule B3, the “Ranking, Compet. data” value was more than 3.

As for B4, the “Ranking, Compet. data” value came to 20.

As for B5, the “Ranking, Compet. data” value stood at 3.

On to B6, for which the “Ranking, Compet. data” value was found to be 3.

As to B7, the “Ranking, Compet. data” value amounted to 2.

As to B8, the “Ranking, Compet. data” value was 2.

As for B9, the “Ranking, Compet. data” value was more than 3.

With B10, the “Ranking, Compet. data” value was determined as 2.

B11: the “Ranking, Compet. data” value stood at 2.

As for B12, the “Ranking, Compet. data” value amounted to 1.

On to B13, for which the “Ranking, Compet. data” value was 2.

As to B14, the “Ranking, Compet. data” value is more than 3.

With B15, the “Ranking, Compet. data” value was found to be 1.

As for B16, the “Ranking, Compet. data” value is more than 3.

Take B17: the “Ranking, Compet. data” value was more than 3.

With B18, the “Ranking, Compet. data” value is more than 3.
